From paper PMC11487556

How the values were obtained:
[1] = molecular target: β1 adrenergic receptor with an intact ICL3 (M. gallopavo β114E130WIC3) (M. gallopavo) (UniProt P07700)
[2] = molecular target: truncated β1 adrenergic receptor (M. gallopavo β114-E130W, without an intact ICL3) (M. gallopavo) (UniProt P07700)

## mini Gs (engineered GTPase domain of the Gαs protein), construct R414, I208A (domain or fragment)
[1]
  GDP release (decay of BODIPY FL GDP fluorescence) after addition of isoprenaline, 20 °C: 60 s
[2]
  GDP release (decay of BODIPY FL GDP fluorescence) after addition of isoprenaline, 20 °C: 60 s
